Literature values in patent US11749377B2, “Method and electronic system for predicting at least one fitness value of a protein, related computer program product” (PEACCEL, priority 2015, dated 2023).

What was measured:
GLP-1 receptor = target: T1, GLP-1 receptor (Rattus norvegicus, UniProt P32301); conditions: Log(EC50), adenylate cyclase activity
T1 sequence (P32301 22-463): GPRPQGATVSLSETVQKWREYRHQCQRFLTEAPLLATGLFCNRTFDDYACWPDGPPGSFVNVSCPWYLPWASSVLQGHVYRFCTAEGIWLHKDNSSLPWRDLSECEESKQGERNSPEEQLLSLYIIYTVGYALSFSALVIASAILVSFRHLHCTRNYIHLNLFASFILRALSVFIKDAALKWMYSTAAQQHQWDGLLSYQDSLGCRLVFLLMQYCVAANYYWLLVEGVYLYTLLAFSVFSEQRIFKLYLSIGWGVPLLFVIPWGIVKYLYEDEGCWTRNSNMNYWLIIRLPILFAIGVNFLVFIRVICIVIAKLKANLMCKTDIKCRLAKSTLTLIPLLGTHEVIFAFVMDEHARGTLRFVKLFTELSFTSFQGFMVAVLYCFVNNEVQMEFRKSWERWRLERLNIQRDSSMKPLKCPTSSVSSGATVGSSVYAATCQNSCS

rat GLP-1 receptor = target: T2, rat GLP-1 receptor (Rattus norvegicus, UniProt P32301); conditions: Log(IC50), binding affinity to rat GLP-1 receptor
T2 sequence (P32301 22-463): T1 sequence (P32301 22-463)

Substance	logEC50 (GLP-1 receptor)	logIC50 (rat GLP-1 receptor)
GLP1 V27A: single mutant analog of human GLP1	0.301	0.1461
GLP1 T5A: single mutant analog of human GLP1	0.699	0.5441
GLP1 Y13A: single mutant analog of human GLP1	1.74	0.5441
GLP1 L14A: single mutant analog of human GLP1	0.8451	0.2304
GLP1 S11A: single mutant analog of human GLP1	0.4771	−0.3372
GLP1 G29A: single mutant analog of human GLP1	0	0.1139
GLP1 A2S: single mutant analog of human GLP1	0.301	0.3802
GLP1 D9A: single mutant analog of human GLP1		1.041
GLP1 V10A: single mutant analog of human GLP1	0.8451	0.2304
GLP1 I23A: single mutant analog of human GLP1	1.8451	1.398
GLP1 E3A: single mutant analog of human GLP1	0.301	0.9085
GLP1 L26A: single mutant analog of human GLP1	0.6021	0.6721
GLP1 G16A: single mutant analog of human GLP1	0.6021	−0.2441
GLP1 F6A: single mutant analog of human GLP1	1.519	1.5563
GLP1 W25A: single mutant analog of human GLP1	1.176	0.2041
GLP1 F22A: single mutant analog of human GLP1	3.415	2.545
GLP1 K28A: single mutant analog of human GLP1	0.301	0.2304
GLP1 G4A: single mutant analog of human GLP1		1.771

Results, then the substance that gave them:

logEC50 (GLP-1 receptor)	logIC50 (rat GLP-1 receptor)	Substance
1.114	0.1461	GLP1 K20A: single mutant analog of human GLP1
1.23	−0.05061	GLP1 A18R: single mutant analog of human GLP1
0.8451	0.6628	GLP1 R30A: single mutant analog of human GLP1
0.699	0.04139	GLP1 Q17A: single mutant analog of human GLP1
1.813	1.5563	GLP1 T7A: single mutant analog of human GLP1
0.699	−0.1192	GLP1 S8A: single mutant analog of human GLP1
1.813	0.6128	GLP1 E15A: single mutant analog of human GLP1
0.301	−0.1675	GLP1 S12A: single mutant analog of human GLP1
